Key:
human iPS cells ("Tic") = assay: Cell adhesiveness evaluation 1 (ALP activity of adhesive iPS cells); type: cell-based; conditions: added amount 200 pmol/cm^2; 30,000 cells/well, 24 hours; natural vitronectin (sample 15) = 100%; n=3
Outline: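 Peptides and controls were adsorbed onto wells for 2 h at 37 °C. Single-cell human iPS cells in TeSR2 with 10 μM Y-27362 were seeded at 30,000 cells/well. After 24 h, non-adherent cells were washed off and adherent cells fixed; cell number came from ALP activity via a calibration curve. Adhesion is expressed relative to natural vitronectin (100%), n=3.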

iPS cells [1] = assay: Growth evaluation, growth curves over 8 days; type: cell-based, human
Protocol: The iPS cells collected in the same manner as in <Cell adhesiveness evaluation 1> were seeded into a 96-well plate, onto which RCP-1, RCP-21, and natural human vitronectin were adsorbed, at a ratio of 250 cells/well and cultured for 8 days in a 5% CO2 incubator at 37° C. The number of adhesive cells after different days of culture was measured in the same manner as in <Cell adhesiveness evaluation 1>, thereby obtaining growth curves. […] In FIG. 2, a black rhombus indicates a case using RCP-1, and a black square indicates a case using RCP-21.
From the increase and decrease in the obtained number of cells, the doubling time was calculated. As a result, it was confirmed that it takes 46.4±2.1 hours for the number of cells to be doubled in a case where RCP-1 is used, and 67.7±2.1 hours in a case where RCP-21 is used.

iPS cells [2] = assay: Evaluation of maintenance of undifferentiated state (reference examples); type: cell-based, human
Protocol: iPS cells collected in the same manner as in <Cell adhesiveness evaluation 1> were suspended in TeSR2. The iPS cells were seeded into 6-well plate (Tissue culture-treated, Falcon), onto which each of the samples 1, 2, 5, 6, and 7 used in <Cell adhesiveness evaluation 1> was adsorbed in the same manner as in <Cell adhesiveness evaluation 1>, and cultured in a CO2 incubator at 37° C. Except for the day after the seeding, the medium was replaced every day. In the same method as described above, the cells were subcultured every six days.
After being cultured for 1 month under the conditions described above, the cells were immobilized using 4% paraformaldehyde and treated with 1% Triton-X/PBS so as to enhance the membrane permeability. After the cells were subjected to a blocking treatment using an Image IT Signal Enhancer (Invitrogen), an anti-human NANOG antibody (AF 1997, R&D Systems, Inc.), an Alexa Fluor 555 binding rabbit anti-goat IgG antibody (Invitrogen), and DAPI (4′,6-diamidino-2-phenylindole, Dojindo Molecular Technologies, Inc.) were added thereto for labeling, and the cells were imaged using a fluorescence microscope.
FIGS. 3A and 4A show the iPS cells cultured on RCP-1; FIGS. 3B and 4B show the iPS cells cultured on RCP-11; FIGS. 3C and 4C show the iPS cells cultured on natural human vitronectin; FIGS. 3D and 4D show the iPS cells cultured on rLaminin-5; and FIGS. 3E and 4E show the iPS cells cultured on rLaminin-511. The scale bar in the images indicates […]. In FIGS. 3A to 3E, the images on the left side are full images of the colony, and the images on the right side are magnified images. In FIGS. 4A to 4E, the images on the left side are images of the cells stained with DAPI, and the images on the right side are images of the cells stained with an anti-NANOG antibody. The scale bar in FIGS. 3A to 4E indicates 200 μm.

B1: RCP-21: comparative polypeptide, SEQ ID NO: 26; positions 1-459, having the sequence of human vitronectin (protein)
chain: GPLGDQESCKGRCTEGFNVDKKCQCDELCSYYQSCCTDYTAECKPQVTRGDVFTMPEDEYTVYDDGEEKNNATVHEQVGGPSLTSDLQAQSKGNPEQTPVLKPEEEAPAPEVGASKPEGIDSRPETLHPGRPQPPAEEELCSGKPFDAFTDLKNGSLFAFRGQYCYELDEKAVRPGYPKLIRDVWGIEGPIDAAFTRINCQGKTYLFKGSQYWRFEDGVLDPDYPRNISDGFDGIPDNVDAALALPAHSYSGRERVYFFKGKQYWEYQFQHQPSQEECEGSSLSAVFEHFAMMQRDSWEDIFELLFWGRTSAGTRQPQFISRDWHGVPGQVDAAMAGRIYISGMAPRPSLAKKQRFRHRNRKGYRSQRGHSRGRNQNSRRPSRATWLSLFSSEESNLGANNYDDYRMDWLVPATCEPIQSVFFFSGDKYYRVNLRTRRVDTVDPPYPRSIAQYWLGCPAPGHL
modifications: Vitronectin-derived Recombinant Protein (RCP-21)
Human iPS cells ("Tic")
  Cell adhesion rate (%): 93.5 ± 7.9%
iPS cells [1]; 250 cells/well, cultured for 8 days
  doubling time: 67.7 ± 2.1 h
iPS cells [1]; FIG. 2
  number of cells on Day 8 of culture as fraction of the number with RCP-1: about ⅓
iPS cells [2]; TeSR2, subcultured every six days, FIGS. 3A to 3E
  form of iPS cell colony: form specific to undifferentiated cells
iPS cells [2]; cultured for 1 month in TeSR2, anti-NANOG staining, FIGS. 4A to 4E
  NANOG expression: strongly expressed NANOG in the entirety of the colony
